Data on 6 molecules can be found in patent US20240254182A1 (PROVINCIAL HEALTH SERVICES AUTHORITY, published 2024).

For assay [1], the target named is T1, design 30 G-CSFR(Ig-CRH)E, tag cleaved (human, UniProt Q99062 26-331).
T1 construct: also called Design 30 G-CSFR(Ig-CRH)E mutant
T1 chain: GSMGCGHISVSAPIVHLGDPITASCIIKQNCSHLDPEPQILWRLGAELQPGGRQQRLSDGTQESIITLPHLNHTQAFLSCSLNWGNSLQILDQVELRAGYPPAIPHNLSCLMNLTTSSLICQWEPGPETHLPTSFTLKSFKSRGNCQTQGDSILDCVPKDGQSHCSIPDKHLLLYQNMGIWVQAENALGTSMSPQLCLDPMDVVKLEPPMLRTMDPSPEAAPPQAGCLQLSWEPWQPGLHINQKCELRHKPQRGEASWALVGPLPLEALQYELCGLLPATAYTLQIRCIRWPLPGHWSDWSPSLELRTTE
The assay can be described thus: SPR, WT G-CSF against design 30 G-CSFR(Ig-CRH)E, single-cycle kinetics. In general terms: SPR reads the build-up and loss of mass on a sensor chip optically.

Assay [2] has as its target T2, design 35 G-CSFR(Ig-CRH)E, tag cleaved (human, UniProt Q99062 26-331).
T2 chain: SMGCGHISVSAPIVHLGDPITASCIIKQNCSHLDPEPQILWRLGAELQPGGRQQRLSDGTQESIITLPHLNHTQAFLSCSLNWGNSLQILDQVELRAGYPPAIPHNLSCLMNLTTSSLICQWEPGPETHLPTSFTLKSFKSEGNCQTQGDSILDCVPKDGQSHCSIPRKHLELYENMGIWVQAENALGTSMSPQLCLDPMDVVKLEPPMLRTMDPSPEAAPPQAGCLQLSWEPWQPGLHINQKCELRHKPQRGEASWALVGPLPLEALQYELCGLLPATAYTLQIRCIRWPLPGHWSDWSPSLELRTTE
Description: SPR, WT G-CSF against design 35 G-CSFR(Ig-CRH)E, single-cycle kinetics.

In assay [3] the target is T3, design 34 G-CSFR(Ig-CRH)E, tag cleaved (human, UniProt Q99062 26-331).
T3 construct: also called Design 34 G-CSFR(Ig-CRH)E mutant
T3 chain: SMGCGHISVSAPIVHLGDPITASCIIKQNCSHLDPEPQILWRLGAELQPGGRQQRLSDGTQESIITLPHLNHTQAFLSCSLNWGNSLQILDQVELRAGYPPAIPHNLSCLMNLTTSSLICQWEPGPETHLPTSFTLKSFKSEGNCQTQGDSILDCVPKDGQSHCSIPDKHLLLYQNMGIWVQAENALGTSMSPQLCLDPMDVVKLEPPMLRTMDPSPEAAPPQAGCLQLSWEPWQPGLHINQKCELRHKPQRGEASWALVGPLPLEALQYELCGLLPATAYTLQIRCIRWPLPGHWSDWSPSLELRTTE
The assay can be described thus: SPR, WT G-CSF against design 34 G-CSFR(Ig-CRH)E; steady state derived affinity constant.

In assay [4] the target is T4, WT G-CSFR(Ig-CRH), purified, tag cleaved (human, UniProt Q99062 26-331).
T4 construct: also called G-CSFRWT; wild type G-CSFR(Ig-CRH)
T4 chain: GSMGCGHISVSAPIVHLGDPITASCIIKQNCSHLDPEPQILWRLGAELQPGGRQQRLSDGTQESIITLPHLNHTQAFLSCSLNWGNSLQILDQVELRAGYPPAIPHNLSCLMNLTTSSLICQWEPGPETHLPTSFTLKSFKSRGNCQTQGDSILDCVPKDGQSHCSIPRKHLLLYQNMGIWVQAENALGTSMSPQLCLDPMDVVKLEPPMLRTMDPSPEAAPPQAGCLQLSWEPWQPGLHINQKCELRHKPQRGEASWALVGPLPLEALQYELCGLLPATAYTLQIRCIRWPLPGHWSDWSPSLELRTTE
Description: SPR (Biacore T200), WT receptor amine-coupled, cytokine injected. The method, then: (§1) The SPR binding assays were carried out on a Biacore T200 instrument (GE Healthcare, Mississauga, ON, Canada) with PBS-T (PBS+0.05% (v/v) Tween 20) running buffer at a temperature of 25° C. CM5 Series S sensor chip, Biacore amine coupling kit (NHS, EDC and 1 M ethanolamine), and 10 mM sodium acetate buffers were all purchased from GE Healthcare. PBS running buffer with 0.05% Tween20 (PBS-T) was purchased from Teknova Inc. (Hollister, CA). Designs were assessed in three different immobilization orientations.
(§2) To assess binding affinity of G-CSFE to G-CSFRWT, recombinant G-CSFRWT purified as described in Example 5 was captured as described above in this Example. Using single-cycle kinetics, six concentrations of a two-fold dilution series of each G-CSFE mutant starting at […] with a blank buffer control were sequentially injected as described above. The same sample titration was also performed on a reference cell with no variants captured. The G-CSFRWT surface was regenerated as described above.
(§3) Double-referenced sensorgrams from duplicate or triplicate repeat injections were analyzed using Biacore™ T200 Evaluation Software v3.0 and fit to the 1:1 Langmuir binding model.

Assay [5] has as its target T5, design 307 G-CSFR(Ig-CRH)E, tag cleaved (human, UniProt Q99062 26-331).
T5 chain: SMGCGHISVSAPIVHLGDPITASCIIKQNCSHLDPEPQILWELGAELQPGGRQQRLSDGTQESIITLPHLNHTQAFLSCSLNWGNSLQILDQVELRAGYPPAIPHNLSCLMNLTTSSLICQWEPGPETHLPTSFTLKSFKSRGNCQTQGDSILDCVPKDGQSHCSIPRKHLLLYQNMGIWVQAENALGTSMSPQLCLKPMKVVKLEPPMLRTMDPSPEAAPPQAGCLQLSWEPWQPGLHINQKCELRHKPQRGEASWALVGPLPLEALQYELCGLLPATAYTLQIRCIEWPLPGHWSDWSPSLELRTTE
The assay can be described thus: SPR, G-CSFRE amine-coupled, G-CSFE injected; steady state derived affinity constant. The protocol:
(§4) To determine binding affinity of G-CSFE to G-CSFRE the G-CSFRE mutant was captured by standard amine coupling as described by the manufacturer (GE LifeSciences). Briefly, immediately after EDC/NHS activation, a 5 μg/mL solution of G-CSFRE in 10 mM NaOAc, pH 5.0, was injected at a flow rate of 5 μL/min until a receptor density of ˜700-900 RU was reached. The remaining active groups were quenched by a 420 s injection of 1 M ethanolamine hydrochloride-NaOH pH 8.5 at 10 μL/min. Using single-cycle kinetics, six concentrations of a two-fold dilution series of the corresponding G-CSFE mutant starting at 200 nM with a blank buffer control were sequentially injected at 25 μL/min for 300 s with a 1800 s dissociation phase, resulting in a set of sensorgrams with a buffer blank reference. The same sample titration was also performed on a reference cell with no variants captured. The chip was regenerated to prepare for the next injection cycle by one pulse of 10 mM glycine/HCl, pH 2.0, for 30 s at 30 μL/min.
as §3
Kinetic-derived affinity constants (KD) where obtained by fitting the association and dissociation phases of the curves. The KD of WT G-CSF for WT G-CSFR(Ig-CRH) ranged between 1.8-2.5E-9. For the cases in which the kinetic parameters could not be fit an attempt was made to derive a steady state affinity constant. In those cases, the KD fold change was calculated from the steady state derived KD for the WT G-CSF:WT G-CSFR(Ig-CRH) pair and is indicated in Table 7.

In assay [6] the target is T1, design 30 G-CSFR(Ig-CRH)E, tag cleaved. Description: SPR, G-CSFRE amine-coupled, G-CSFE injected, single-cycle kinetics. The protocol: as §1, §4, §3
Assay [7] deals with T4, WT G-CSFR(Ig-CRH), purified, tag cleaved. The assay can be described thus: SPR, WT G-CSFR(Ig-CRH) amine-coupled, G-CSFE injected, single-cycle kinetics. The protocol:
as §1, §2

Assay [8] concerns the target T3, design 34 G-CSFR(Ig-CRH)E, tag cleaved. Description: SPR, G-CSFRE amine-coupled, G-CSFE injected, single-cycle kinetics. The protocol:
as §1, §4, §3

For assay [9], the target named is T6, design 304 G-CSFR(Ig-CRH)E, tag cleaved (human, UniProt Q99062 26-331).
T6 chain: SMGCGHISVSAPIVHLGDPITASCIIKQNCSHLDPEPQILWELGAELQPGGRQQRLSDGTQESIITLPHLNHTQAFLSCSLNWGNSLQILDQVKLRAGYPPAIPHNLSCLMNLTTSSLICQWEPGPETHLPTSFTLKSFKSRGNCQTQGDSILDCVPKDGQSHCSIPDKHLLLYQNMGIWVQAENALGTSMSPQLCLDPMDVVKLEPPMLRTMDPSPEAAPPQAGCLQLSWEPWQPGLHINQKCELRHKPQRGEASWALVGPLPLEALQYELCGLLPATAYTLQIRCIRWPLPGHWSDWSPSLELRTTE
The description is as above. The method, then: as §1, §4, §3

Assay [10] addresses T2, design 35 G-CSFR(Ig-CRH)E, tag cleaved. The assay is described as above. The protocol:
as §1, §4, §3

B1: WT G-CSF, purified from insect cells, tag cleaved (ligand)
chain: TPLGPASSLPQSFLLKCLEQVRKIQGDGAALQEKLCATYKLCHPEELVLLGHSLGIPWAPLSSCPSQALQLAGCLSQLHSGLFLYQGLLQALEGISPELGPTLDTLQLDVADFATTIWQQMEELGMAPALQPTQGAMPAFASAFQRRAGGVLVASHLQSFLEVSYRVLRHLAQAAAENLYFQ
notes: protein of the SPR; also called G-CSFWT; wild type G-CSF
In the case of B1, the “KD fold change (against WT:WT)” value in assay [1] worked out at 774 fold; in assay [2], 19 fold; in assay [3] it was 4260 fold.

B2: design 307 G-CSFE, tag cleaved (ligand)
chain: TPLGPASSLPQEFLLDCLKQVRKIQGDGAALQEKLCATYKLCHPERLVLLGHSLGIPWAPLSSCPSQALQLAGCLSQLHSGLFLYQGLLQALEGISPELGPTLDTLQLDVADFATTIWQQMEELGMAPALQPTQGAMPAFASAFQRRAGGVLVASHLQSFLEVSYRVLRHLAQAAAENLYFQ
For the molecule B2, in assay [4], the binding result is given as “no binding”. The “KD fold change (against WT:WT)” value in assay [5] was 0.6 fold.

B3: design 30 G-CSFE, tag cleaved (ligand)
chain: TPLGPASSLPQSFLLKCLEQVRKIQGDGAALQEKLCATYKLCHPEELVLLGHSLGIPWAPLSSCPSQALQLAGCLSQLHSGLFLYQGLLQALEGISPELGPTLDTLQKDVARFATTIWQQMEELGMAPALQPTQGAMPAFASAFQRRAGGVLVASHLQSFLEVSYRVLRHLAQAAAENLYFQ
notes: also called design 30 G-CSFE mutant
Take B3: the figures for the “KD fold change (against WT:WT)” value in assay [6] and in assay [7] were 11 fold and 20 fold, respectively.

B4: design 34 G-CSFE, tag cleaved (ligand)
chain: TPLGPASSLPQSFLLKCLEQVRKIQGDGAALQEKLCATYKLCHPEELVLLGHSLGIPWAPLSSCPSQALQLAGCLSQLHSGLFLYQGLLQALEGISPELGPTLDTLQKDVARFATTIWQQMRRLGMAPALQPTQGAMPAFASAFQRRAGGVLVASHLQSFLEVSYRVLRHLAQAAAENLYFQ
notes: also called design 34 G-CSFE mutant
B4: the entries for the “KD fold change (against WT:WT)” value in assay [8] and in [7] were 5 fold and 33 fold, respectively.

B5: design 304 G-CSFE, tag cleaved (ligand)
chain: TPLGPASSLPQSFLLKCLEQVRKIQGDGAALQEKLCATYKLCHPERLVLLGHSLGIPWAPLSSCPSQALQLAGCLSQLHSGLFLYQGLLQALEGISPELGPTLDTLQKDVARFATTIWQQMEELGMAPALQPTQGAMPAFASAFQREAGGVLVASHLQSFLEVSYRVLRHLAQAAAENLYFQ
On to B5, for which, in assay [4], the binding result is on record as “no binding”. In assay [9], the “KD fold change (against WT:WT)” value amounted to 6.5 fold.

B6: design 35 G-CSFE, tag cleaved (ligand)
chain: TPLGPASSLPQSFLLKCLEQVRKIQGDGAALQEKLCATYKLCHPEELVLLGHSLGIPWAPLSSCPSQALQLAGCLSQLHSGLFLYQGLLQALEGISPELGPTLDTLQLDVADFAKTIWQQMRRLGMAPALQPTQGAMPAFASAFQRRAGGVLVASHLQSFLEVSYRVLRHLAQAAAENLYFQ
notes: also called design 35 G-CSFE mutant
As to B6, the entries for the “KD fold change (against WT:WT)” value in assay [10] and in assay [7] were 3.3 fold and 5 fold, respectively.
